In article PMC7039645 (mAbs, 2020):
Positions count from the first letter of the chain named.

B1: hu4D5-g3.1 Fab (Fab, V domains shown)
VH: EVQLVESGGGLVQPGGSLRLSCAASGFNIKDTYIHWVRQAPGKGLEWVARIYPTNGYTRYADSVKGRFTISADTSKNTAYLQMNSLRAEDTAVYYCARGHYSSGHPFDYWGQGTLVTVSS
VL: not shown
B2: hu4D5-g3.2 Fab (Fab, V domains shown)
VH: B1 VH with H100I, Y101G, S102N, S103G, G104A, H105E, P106G, F107M
VL: not shown
B3: hu4D5-g2.1 Fab (Fab, V domains shown)
VH: B1 VH with G99S, Y101K, S102N, S103V, G104M, H105G, P106L, F107V
VL: not shown
B4: hu4D5-g2.2 Fab (Fab, V domains shown)
VH: B1 VH with G99S, Y101A, S102L, S103V, G104Y, H105G, P106L, F107I
VL: not shown
B5: F9.13.7 (antibody, V domains shown)
VH: QVQLQQPGAELVKPGASVKLSCKASGYTFTSYWMHWVKQGPGQGLEWIGEIDPSDSYPNYNEKFKGKATLTVDKSSSTAYMQLSSLTSEDSAVYYCASLYYYGTSYGVLDYWGQGTSVTVSS
VL: DIQMTQTTSSLSASLGDRVTISCRASQDISNYLNWYQKKPDGTVKLLIYYTSRLHSGVPSRFSGSGSGTDYSLTIRNLEQEDIATYFCQQGYTLPYTFGGGTKLEIK
B6: hu2C4-g3.1 IgG1 (antibody, V domains shown)
VH: EVQLVESGGGLVQPGGSLRLSCAASGFTFTDYTMDWVRQAPGKGLEWVADVNPNSGGSIYNQRFKGRFTLSVDRSKNTLYLQMNSLRAEDTAVYYCARLMSYGYFDYWGQGTLVTVSS
VL: DIQMTQSPSSLSASVGDRVTITCKASQDVSIGVAWYQQKPGKAPKLLIYSASYRYTGVPSRFSGSGSGTDFTLTISSLQPEDFATYYCQQYYIYPYTFGQGTKVEIK
B7: hu2C4-g1.2 IgG1 (antibody, V domains shown)
VH: EVQLVESGGGLVQPGGSLRLSCAASGFTFTDYTMDWVRQAPGKGLEWVADVNPNSGGSIYNQRFKGRFTLSVDRSKNTLYLQMNSLRAEDTAVYYCARAITNEVLLDYWGQGTLVTVSS
VL: B6 VL
B8: hu2C4-g2.2 IgG1 (antibody, V domains shown)
VH: B7 VH with A99S, I100S, T101R, N102P, E103P, V104W, L105F, L106F
VL: B6 VL
B9: hu2C4-g3.2 IgG1 (antibody, V domains shown)
VH: B6 VH with M100L, S101A, F105L
VL: B6 VL
B10: hu2C4-g2.1 IgG1 (antibody, V domains shown)
VH: B7 VH with A99S, I100S, N102P, E103P, V104F, L105F, L106M
VL: B6 VL
B11: hu2C4-g1.1 IgG1 (antibody, V domains shown)
VH: B7 VH with T101A, N102G, E103G
VL: B6 VL

target: T1, human epidermal growth factor receptor 2 (Homo sapiens, UniProt P04626); test: SPR

Row | Kd [nM] | koff [s⁻¹] | kon [M⁻¹ s⁻¹] | Binder
1 | 0.39 | 0.00032 | 960000 | B1
2 | 1.8 | 0.0011 | 660000 | B2
3 | 0.27 | 0.00035 | 1.6e+06 | B3
4 | 0.33 | 0.00043 | 1.8e+06 | B4

target: hen egg-white lysozyme (chicken (hen egg-white), UniProt P00698); test: SPR

Row | binding result | Binder
5 | binds | B5

target: T1, human epidermal growth factor receptor 2; test: SPR; remark: another data set of the same source

Row | Kd [nM] | koff [s⁻¹] | kon [M⁻¹ s⁻¹] | Binder
6 | 6.4 | 0.0004 | 63000 | B6
7 | 28 | 0.0014 | 49000 | B7
8 | 23 | 0.0015 | 65000 | B8
9 | 9.9 | 0.00057 | 58000 | B9
10 | 25 | 0.00096 | 39000 | B10
11 | 25 | 0.0012 | 48000 | B11
